From patent US20120238494A1 (published 2012) come the findings set out here.

Experiment [1] deals with T1, human GnRH receptor (human, UniProt P30968 1-328).
T1 construct: whole, on cells; Endogenous receptor; also called LHRH receptor; human pituitary GnRH receptor
T1 sequence (looked up): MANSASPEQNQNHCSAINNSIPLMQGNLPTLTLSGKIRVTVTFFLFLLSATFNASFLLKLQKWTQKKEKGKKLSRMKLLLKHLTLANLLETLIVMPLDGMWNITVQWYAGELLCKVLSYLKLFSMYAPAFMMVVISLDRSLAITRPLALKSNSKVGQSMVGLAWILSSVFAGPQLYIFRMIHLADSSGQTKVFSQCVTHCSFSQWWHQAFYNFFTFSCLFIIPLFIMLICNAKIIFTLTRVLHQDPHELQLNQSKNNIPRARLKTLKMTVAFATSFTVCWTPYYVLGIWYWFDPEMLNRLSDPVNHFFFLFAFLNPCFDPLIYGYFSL
As to the kind of experiment: cell-based or functional assay.

For experiment [2], the target named is T2, rat GnRH receptor (rat pituitaries) (rat, UniProt P30969 1-327).
T2 construct: whole, on cells; Endogenous receptor of rat pituitary tissue, used as the control preparation
T2 sequence (looked up): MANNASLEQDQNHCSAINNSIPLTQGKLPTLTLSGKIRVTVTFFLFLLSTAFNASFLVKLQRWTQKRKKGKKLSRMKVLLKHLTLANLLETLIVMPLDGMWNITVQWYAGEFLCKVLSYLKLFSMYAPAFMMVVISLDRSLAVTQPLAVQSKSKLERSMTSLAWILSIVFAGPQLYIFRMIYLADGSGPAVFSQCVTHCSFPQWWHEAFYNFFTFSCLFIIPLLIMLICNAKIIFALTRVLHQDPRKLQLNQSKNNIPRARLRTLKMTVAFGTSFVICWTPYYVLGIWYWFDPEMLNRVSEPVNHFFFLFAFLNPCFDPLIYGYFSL
The experiment can be described thus: radioligand binding, displacement curves, rat pituitaries (control).

Experiment [3] addresses T1, human GnRH receptor. The experiment can be described thus: radioligand binding, displacement curves, BLM human melanoma cell membranes.
Experiment [4] has as its target T1, human GnRH receptor. The experiment can be described thus: radioligand binding, displacement curves, ME15392 human melanoma cell membranes.

Numbered stars: 1 amine (or outer) side, 2 acyl side, 3 side chain; on linkers, the order of the positions; unused ones are H or OH. Square brackets hold non-standard residues; d marks the D form. dSer(tBu) = CC(C)(C)OC[C@@H](N[*:1])C(=O)[*:2]; pGlu = O=C1CC[C@@H](C(=O)O)N1; azaGly = NNC(=O)O

On to “Antide, a LHRH antagonist (Sigma Chemical Co., No. A8802) (peptide)”, for which, in the experiment with human GnRH receptor [1], the inhibition of MV3 melanoma cell proliferation at 10^-4 M was 15%, the inhibition of MV3 melanoma cell proliferation at 10^-5 M was determined as 35% and the stimulation of MV3 melanoma cell growth at 10^-6 M came to 40%.

For the molecule GnRH antagonist Cetrorelix (peptide), in the experiment with human GnRH receptor [1], the decrease of U-87MG cell proliferation at 10^-6 M was determined as 28% and the inhibition of U-87MG cell proliferation at 10^-5 M worked out at 30%.

In the experiment with human GnRH receptor [1], “Triptorelin, an LHRH agonist (Sigma Chemical Co., No. L9761) (peptide)” showed an inhibition of MV3 melanoma cell proliferation at 10^-4 M, 10^-5 M and 10^-6 M, from day 4 on of 15%.

B1: GnRH agonist LHRH-A, ZOLADEX [D-Ser(tBu)^6Aza-Gly-LHRH] (peptide)
peptide: [pGlu]HWSY[dSer(tBu)]LRP[azaGly]-NH2
modifications: also: 125I-labelled tracer form, position not given here
notes: the unlabelled form was used in the cell assays; also called Goserelin
The term Kd denotes the concentration at which binding is half-saturated. With B1, the Kd lay within 1.5 to 2 nM in experiment [2], 0.7 to 1.1 nM with human GnRH receptor [3] and 0.1 to 0.6 nM with human GnRH receptor [4].
